In the supplement of paper PMC10724198:
± gives the standard deviation of the averaged measurements.

tested on: Saccharomyces cerevisiae; assay: protein stability index of tFT-peptide fusion (C-terminal peptide) (PSI (0-1 scale)); higher = more stable (slower turnover); conditions: genetic background: wild type; temperature: 30 C
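Further: PSI is a weighted mean of sequencing reads over stability bins, variants kept only with over 10 reads, mCherry proximal and sfGFP distal, peptide attached via GGGS linker.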

| Sequence | protein stability index |
| --- | --- |
| LTRLAYGLATAL | 0.664 ± 0.019 |
| LTRQCLLPGWGL | 0.707 ± 0.067 |
| LTRSIKVWRAMR | 0.686 ± 0.018 |
| LTSPPRPAFVRV | 0.636 ± 0.035 |
| LTSSYSLCFLAP | 0.696 ± 0.011 |
| LTTPTIAKTREN | 0.691 ± 0.016 |
| LTVLPAVNCFPV | 0.681 ± 0.021 |
| LVAFNCVVLGKG | 0.686 ± 0.014 |
| LVCHDWFSFYMF | 0.64 ± 0.035 |
| LVDEGRGLRWSR | 0.679 ± 0.0075 |
| LVFPRCAFGFCF | 0.6791 ± 0.0047 |
| LVFRSMFFFRLF | 0.66 ± 0.017 |
| LVGGFLVSGRAR | 0.69 ± 0.051 |
| LVGLNNSFVSKA | 0.6448 ± 0.0039 |
| LVGTFTEKFRVC | 0.578 ± 0.023 |
| LVHVPVCFLSVL | 0.557 ± 0.0021 |
| LVLLPLPLPLFP | 0.578 ± 0.015 |
| LVMQSVQDDPVF | 0.692 ± 0.0081 |
| LVPLPLPPPPPS | 0.672 ± 0.0028 |
| LVQPHGSRFGLA | 0.644 ± 0.012 |
| LVRPGSTRDKRT | 0.736 ± 0.034 |
| LVSLSPCPSSPL | 0.671 ± 0.014 |
| LVVEAIRSRAFK | 0.6919 ± 0.0028 |
| LVVGFRVGLRGV | 0.669 ± 0.035 |
| LVVGGLVLSGNL | 0.668 ± 0.057 |
| LVWGQPWKMPVV | 0.699 ± 0.012 |

| Sequence | protein stability index |
| --- | --- |
| LWCGGWVCVLGW | 0.532 ± 0.013 |
| LWGGAGLRCGGF | 0.726 ± 0.017 |
| LWGVGAGPEDVG | 0.68 ± 0.014 |
| LWRVRCGLGMSG | 0.681 ± 0.15 |
| LYDQTSQDRRVF | 0.6974 ± 0.004 |
| LYDSNLILSIPC | 0.617 ± 0.14 |
| LYFGVGSICLVS | 0.649 ± 0.043 |
| LYHFYTASPCLI | 0.536 ± 0.044 |
| LYLLPLCRPFPY | 0.692 ± 0.013 |
| LYLRNFGSPFLV | 0.65 ± 0.024 |
| LYRILQAPRSSP | 0.703 ± 0.079 |
| LYSAHLAPGNAD | 0.656 ± 0.039 |
| MCGLVGDVLAVG | 0.762 ± 0.1 |
| MEAAARRMIKRK | 0.6 ± 0.04 |
| MFLVLEGIDSRV | 0.65 ± 0.051 |
| MGGGGARAVVVG | 0.627 ± 0.021 |
| MGGRAEGWVPVP | 0.68 ± 0.15 |
| MGLRDPEWSGDI | 0.673 ± 0.018 |
| MGQVMTKQQRKI | 0.668 ± 0.016 |
| MGWGALGARGLV | 0.683 ± 0.029 |
| MGYDYAPISALF | 0.691 ± 0.1 |
| MIKINHRIKIKY | 0.7115 ± 0.0039 |
| MKEKTNLETKDT | 0.691 ± 0.013 |
| MLLLIDTSGGWS | 0.71 ± 0.011 |
| MLRMSVSRGGLL | 0.729 ± 0.011 |
| MPFTSDAAALAP | 0.689 ± 0.03 |

| Sequence | protein stability index |
| --- | --- |
| MPIKGRHSRSLK | 0.66 ± 0.044 |
| MPPRVLSALAPL | 0.642 ± 0.0023 |
| MPRRLSLNLDYL | 0.6563 ± 0.0064 |
| MRDRDSVDNMDG | 0.666 ± 0.025 |
| MRPSLSDAMMSS | 0.687 ± 0.055 |
| MRRTFQHQGRAN | 0.676 ± 0.031 |
| MRSTFFFLQHRH | 0.614 ± 0.013 |
| MSGKIMVLQKEE | 0.643 ± 0.013 |
| MSIDQPLLGTGV | 0.638 ± 0.034 |
| MSLSYYFSPVYS | 0.625 ± 0.044 |
| MSRRHDQESIHV | 0.673 ± 0.021 |
| MVIYGKEGWRIQ | 0.661 ± 0.07 |
| MYSSIFTHVFGV | 0.734 ± 0.024 |
| NARGRGAGGAST | 0.626 ± 0.048 |
| NASASTLPFPLD | 0.71 ± 0.054 |
| NDAKQKRLTFET | 0.671 ± 0.048 |
| NDFFVVFSVGEC | 0.613 ± 0.041 |
| NDGIKYQSEKRR | 0.7 ± 0.02 |
| NDHEQGPTQARG | 0.669 ± 0.044 |
| NDQASVLSFRSV | 0.664 ± 0.063 |
| NEPQDQLQEQAT | 0.665 ± 0.069 |
| NFIKCASDIRID | 0.67 ± 0.027 |
| NFPPTPECSFVS | 0.643 ± 0.0086 |
| NFTPRKHARQRP | 0.736 ± 0.0088 |
| NFTSYDIYLSCS | 0.671 ± 0.016 |
| NGCVRNVSSLVF | 0.607 ± 0.066 |

| Sequence | protein stability index |
| --- | --- |
| NGGFIGVYICRT | 0.73 ± 0.13 |
| NGGKDAVVLGGG | 0.636 ± 0.054 |
| NGGSAKVYLGKI | 0.652 ± 0.019 |
| NGKFLREKMRWG | 0.662 ± 0.036 |
| NGKGECSLESSS | 0.677 ± 0.013 |
| NGKKYWQEYGWG | 0.686 ± 0.025 |
| NGMKDKTKIAKI | 0.701 ± 0.008 |
| NGRPGPAEPELW | 0.692 ± 0.043 |
| NGVRGRGGQWVQ | 0.725 ± 0.03 |
| NGVVAYHVQSFC | 0.6 ± 0.011 |
| NHRQPNSTKNRT | 0.547 ± 0.044 |
| NHVWGSNRCSSC | 0.689 ± 0.04 |
| NIIYKRKKGRRW | 0.6889 ± 0.001 |
| NIKIILPWNPPE | 0.667 ± 0.013 |
| NIKITVHSTMDM | 0.698 ± 0.019 |
| NINHTNLKENKD | 0.667 ± 0.0099 |
| NINVSFLSNECR | 0.6735 ± 0.0021 |
| NISIFGSRLRVV | 0.533 ± 0.034 |
| NITIEGVELERV | 0.715 ± 0.029 |
| NKHYIQSHTDPD | 0.698 ± 0.023 |
| NKKIKKDKIKGK | 0.692 ± 0.031 |
| NKKKKQRMKRNG | 0.719 ± 0.12 |
| NKKRKYRKNKRG | 0.6096 ± 0.0051 |
